From publication PMC7641760, “Evolution of a highly functional circular DNA aptamer in serum”

How the values were obtained:
human alpha-thrombin [1] = biological target: T1, human alpha-thrombin (Homo sapiens, UniProt P00734;P00734 328-363;364-622); test: EMSA; EMSA: 1x binding buffer (PBSMT pH 7.2: 137 mM NaCl, 2.68 mM KCl, 8.1 mM Na2HPO4, 1.76 mM KH2PO4, 1 mM MgCl2, 0.025% Tween-20), <50 pM 32P-DNA, 30 min; gel 10% n
[2] = biological target: alpha-thrombin (light; heavy chain) (Homo sapiens (Human), UniProt P00734;P00734 328-363;364-622, N-glycosylated (plasma); interchain disulfide); test: EMSA; PBS pH 7.2, 1 mM MgCl2, 0.025% Tween-20; DNA <50 pM; conditions: copies: 1;1; label: 32P
human alpha-thrombin [3] = biological target: T1, human alpha-thrombin; test: competition; displaces 32P-CTBA4T (500 pM, thrombin 50 pM) at high concentration; exosite I; EMSA: 1x binding buffer (PBSMT pH 7.2: 137 mM NaCl, 2.68 mM KCl, 8.1 mM Na2HPO4, 1.76 mM KH2PO4, 1 mM MgCl2, 0.025% Tween-20), <50 pM 32P-DNA, 30 min; gel 10% n

B1: CTBA4T-B1 (structured_DNA)
DNA: ATCTCGAGTCATAGGGGGCGCGAACATACGCGGTTGGTGTGGTTGGCTGACTCGT
modifications: circular (5'-3' ligated)
Q: For B1, which Kd (human alpha-thrombin [1]) is on record?
A: The Kd was 0.019 nM.

B2: CTBA4T (structured_DNA)
DNA: ATCTCGACTAGTCATAGGGGGCGCGAACATACGCGGTTGGTGTGGTTGGCTGACAATACTCGT
modifications: circular (5'-3' ligated)
Q: B2 was tested. Which Kd (human alpha-thrombin [1]) did it give?
A: Its Kd is 0.023 nM.

B3: CTBA4T (structured_DNA)
DNA: ATCTCGACTAGTCATAGGGGGCGCGAACATACGCGGTTGGTGTGGTTGGCTGACAATACTCGT
modifications: circular (3'-5' ligated)
Q: For B3, which Kd [2] is on record?
A: Its Kd is 0.023 nM.

Q: Does GGTTGGTGTGGTTGG (structured_DNA) [TBA15] bind (human alpha-thrombin [3])?
A: Result: binds
